Source: patent US11851495 (Boehringer Ingelheim, dated 2023)

Target: T1, cadherin-17 (CDH17) (human, UniProt Q12864 23-832)
T1 construct: whole, on cells; not detected on HepG2 cells
Assay: flow cytometry (FACS) on Colo-205 cells, antibody as primary reagent
Procedure: TRAILR2 and CDH17 protein surface expression on the Colo-205 cells was analyzed as follows. Cells were detached using Accutase (Sigma A6964) and washed twice with FACS buffer (PBS, Gibco 14190; 3% FCS, Gibco 26140; and 0.09% NaN_3, Sigma Aldrich S2002).
After seeding the cells, the plate was centrifuged at 1200 rpm for 5 minutes and the supernatant were discarded. Cells were then incubated for 60 min at 4° C. with 100p/well of the primary antibody appropriated dilution. Cells were washed twice with FACS buffer and 100p/well of the appropriated dilution of secondary/conjugated antibodies was added. Cells with secondary antibodies were incubated for 45 min at 4° C. in the dark. After two washes with FACS buffer, cells were resuspended in 100p FACS buffer per well and analyzed in a FACS Canto (BD Biosciences).
Example 12: Detection of CDH17 Surface Expression Using Newly Generated CDH17 Antibodies In FIG. 13 is shown how the newly generated anti-CDH17H2 antibody (comprising a VH of SEQ ID NO: 116 and a VL of SEQ ID NO: 117 and an IgG1 sequence of SEQ ID NO: 121) is able to detect CDH17 protein surface expression. FACS analysis was performed as described in Example 6. The newly generated anti-CDH17H2 antibody was used as primary antibody for detection, followed by a secondary antibody rabbit anti-mouse IgG PE (Dako, R0439). […]

binding result: binds
B1: anti-CDH17H2 antibody (antibody, V domains shown)
VH: QVQLVQSGAEVKKPGSSVKVSCKVSGYTFTDHTIHWMKQRPGQGLEWIGYIYPRDVITQYNEKFKGKVTLTADKSTSTAYMELSSLRSEDTAVYLCARWGYFYGSRSYYFDYWGQGTTVTVSS
VL: DIQMTQSQSSLSASVGDRVGITCKASQNVGTAVAWYQQKPGKAPKLLIYSASNRYTGVPSRFSGSGSGTDFTLTISSLQPKDFATYFCQQYSSYPWTFGQGTKLEIK
notes: also called parental CDH17 antibody
